The data set is described as follows: label from the status in PepcDB records.
With “MDKRRVVVTGVGAVTPIGNDAETSWENAKKGVNGVAKMTRLNPDDFPVKIAAELKDFDVEKYLEKKEARKMDRFTHYAIASAEMAVQDSGLVIDDSNANRVGVWIGSGIGGMETFETQYEIFLNRGHRRVSPFFVPMMIPDMGSGQVSIRFGAKGINSTTVTACATATNSIGDAFKVIERGDADAMITGGAEAPITKMSLAGFTANKALSLNPDPETACRPFDKDRDGFIIGEGAGIVILEEYEHAKARGAKIYAEIVGYGATGDAYHITAPAPNGEGAARAMKMAIDDAGLTPDKVDYINAHGTSTPYNDEYETQAIKTVFGEHAKKLAISSTKSMTGHTLGASGGIEAIFALLTIRDNIIAPTIHLKNQDEVCDLDYVPNEAREANVNVVISNSFGFGGHNATLVFKRIED”, the protein production result is listed as “not failed”.
Take “MDKTKTFCKASLVSIALVLLLVSSAALAATENDTGNATIKDDYVSSTAMANTEGSSLPKVTETQITTSGFHPAIYGNRIVWTDYHDEECNIYMYDLSTKKETQITTSGDVSGSDIYGNRIVWSNYVYPNEVYMYDLSTSQKSTISGYNSYVDSLSIYGDKVVWGDSLDDYVSIFMHDLSTKEETLLTYDAYNPAIYGNRIVWEDRFDDNIYMYDISTKKQTRITNGGAADDPAIYGNRIVYASTHDGNTDIYMYDLSTKKQTQITSSPDAQTHPAIYGNRIVWEDDGGEDDGYTNHGIYMYDISTNQKMKISTKGSAYSPTIYGNNIVWEYYNNENGKLRNLHGHYFRTKTEPSYCCILCIPNFRKNTIKSYFY”: the protein production entry is given as “failed”.
In the case of “MDKTNLGELINQGKSLLDESVEGFNVGEYHKGAKDGLTVEINKAEEVFNKEDATEEEINLAKESLEGAIARFNSLLIEESTGDFNGNGKIDIGDLAMVSKNIGSTTNTSLDLNKDGSIDEYEISFINHRILNLEHHHHHH”, the protein production result is “not failed”.
As for “MDKVYLTWWQVDRAIFALAEKLREYKPDVIIGVARGGLIPAVRLSHILGDIPLKVIDVKFYKGIDERGEKPVITIPIHGDLKDKRVVIVDDVSDTGKTLEVVIEEVKKLGAKEIKIACLAMKPWTSVVPDYYVFRTEKWIVFPWEEFPVIEKE”, the protein production entry was “not failed”.
For “MDLDYGGVPLWINRFLGEPSVLTLKDRIDPGWYRAVNTQSCPLECDCPIQWPTAIYCDHRGLNQLPSGLPFRLQYLFLQGNNITSLGSRAFDNTTYLRWLILDHNELLSEQLDNVLFSSLTRLVNLFINHNNLTKVPAGLPSGLKQLRLAYNHIEKISEGDFQNLDSLTLILLQGNRLKTIEEGDFKGLGALNLLDLSHNFLDTFPKHLPPSVQQLYLSNNSLTGLSENSLHAFSGLRYLRLGHNKLRNERLDPGAFNLTSLVELDLSYNRLTEIPSVPITLQYLYLEVNHIQEFNVSSFCRTVGPTSYSRMKILRLDGNKLEYHKLPPDWVFCLRVLHNIYI”, the protein production entry is “failed”.
Under “MDLELDEYYNKTLATENNTAATRNSDFPVWDDYKSSVDDLQYFLIGLYTFVSLLGFMGNLLILMALMKKRNQKTTVNFLIGNLAFSDILVVLFCSPFTLTSVLLDQWMFGKVMCHIMPFLQCVSVLVSTLILISIAIVRYHMIKHPISNNLTANHGYFLIATVWTLGFAICSPLPVFHSLVELQETFGSALLSSRYLCVESWPSDSYRIAFTISLLLVQYILPLVCLTVSHTSVCRSISCGLSNKENRLEENEMINLTLHPSKKSGPQVKLSGSHKWSYSFIKKHRRRYSKKTACVLPAPERPSQENHSRILPENFGSVRSQLSSSSKFIPGVPTCFEIKPEENSDVHELRVKRSVTRIKKRSRSVFYRLTILILVFAVSWMPLHLFHVVTDFNDNLISNRHFKLVYCICHLLGMMSCCLNPILYGFLNNGIKADLVSLIHCLHM” stands “failed”; under “MDLETLRARREAVLSLCARHGAVRVRVFGSVARGEAREDSDLDLLVAFEEGRTLLDHARLKLALEGLLGVRVDIVSERGLAPRLREQVLREAIPL”, “not failed”.
Then “MDLFPEEIYVFTPDGRIIELPMGATAIDFAYAVHTDVGNSCVGVKVDRKPYPMSRPIDSGQTIEVITSASARPNATWLEHHHHHH”, with “failed”; and “MDLGILSQLLILLFVSMLLGVLFSKFKIPDVVAYILTGVLVGNGFLKIVSPSVPISDIESVSLFFIILAIGVEANTEYIYGNVRRSIILTISSFIAPSMLGFLYLQAVAHLPIIPAFVLSMSVGVPSISIISVLLMRYDLLKLNAGRLILSSVVLTDTSAFIILSSTYESVTKVLISFGFVVLFLFAIWLFDILIRRRAGRIIEWISRRETDNNMEYILFSLVIIAGLLVSTLFEFIGITYVLGAFYAGILIHEASIGQKYHKIILNTIKRINDSFFIPLFFSIAGISMILPKISIFMIFLPALLILMGASGGLTYLVSHRLIRSLEPIKVVSILGGRGAVGVIIATIAFQSGIIDVAVYSLALIGTVIFSLVMTPLVSIGNAPSQNDDVRYS”, with “failed”; and “MDLKGGESMVDWKLMQEIIEAPGVSGYEHLGIRDIVVDVLKEVADEVKVDKLGNVIAHFKGSSPRIMVAAHMDKIGVMVNHIDKDGYLHIVPIGGVLPETLVAQRIRFFTEKGERYGVVGVLPPHLRRGQEDKGSKIDWDQIVVDVGASSKEEAEEMGFRVGTVGEFAPNFTRLNEHRFATPYLDDRICLYAMIEAARQLGDHEADIYIVGSVQEEVGLRGARVASYAINPEVGIAMDVTFAKQPHDKGKIVPELGKGPVMDVGPNINPKLRAFADEVAKKYEIPLQVEPSPRPTGTDANVMQINREGVATAVLSIPIRYMHSQVELADARDVDNTIKLAKALLEELKPMDFTP”, with “not failed”.
Turning to “MDLLERLGLGGRRVLILHHDDLGLTHAQNGAYQALGLPTGSVMVPGAWASGVKGEDLGVHLVLTSEWPAPRMRPLTEGESLRDEAGYFPESLEALWRKARAEEVERELKAQIQAAAKLFSPTHLDAHQGAVLRPDLAEVYLRLAEAYRLVPLVPESLEGLGVPPPFLPELERLLYETPFPQVRFLDPYGLPPEERLGFYLDLAHLPPGLYYLVHHSALPTPEGRALPDWPTREADYFALSHPEVRRVLAEFHPLTWRAVREALF”, the protein production entry is given as “not failed”.
For “MDLLKNIFKGDKVIWIIFLCLCLISIIEVFSAASTLTYKSGDHWGPITQHSIILMVGAVVVVLMHNIPYKWFQVFPVFLYPISVVLLAFVTLMGVITGDRVNGAARWMSFMGLQFQPSELAKMAVIIAVSFILSKKQDDEGANPKAFKYIMILTGLVCMLIAPENLSTAMLLFGVVVLMMFIGRVAFKKLAMLLGGLALVGCLGAVFLLAIPKDTDIPFLHRFDTWKSRITNFTEKEEVPAAKFDIDKDAQIAHARIAIATSNVIGKAPGNSIQRDFLSQAFSDFIFAIIIEELGLVGGAFVVILYIWLLVRTGRIAQKCERTFPAFLVMGIALMLVSQAILNMMVAVGLFPVTGQPLPLISKGGTSTLINCAYIGMILSVSRYTAYLEEKKENPAPLLTQSEGNETIASEAQTAAEPTAEVLNSDAKFEE”, the protein production result is recorded as “failed”.
In the case of “MDLPVMPPVKPMLAKSVAKIPPGMHYEAKWDGFRAIVYRDGDEVELGSRTGKPLTRYFPELVVAVRERLPERCVVDGEIVIARDGHLDFDALTERIHPADSRVRTLAERTPASLVAFDLLALDDASLLDVGLADRRALLVRALSGVTPPVHVAPATDDIEVARRWFEQYEGAGLDGVVAKPLDLRYRQDERAMYKIKHERTADVVVAGYRFHKSGPVVGSLLLGLYDDRGLLQHVGVSAAFTMKRRAELVAELEPLRMDDARGHPWAAWAEEAAHESARLPGAPSRWSGKKDLSWVPLRPERVVEVAYDHMENGARFRHTARFRRWRPDRTPESCTYAQLEEPVRYDLAEILGGPLEHHHHHH”, the protein production entry was “failed”.
For “MDLSLLKALSEADAIASSEQEVRQILLEEAARLQKEVRFDGLGSVLIRLNESTGPKVMICAHMDEVGFMVRSISREGAIDVLPVGNVRMAARQLQPVRITTREECKIPGLLDGDRQGNDVSAMRVDIGARTYDEVMQAGIRPGDRVTFDTTFQVLPHQRVMGKAFDDRLSCYLLVTLLRELHDAELPAEVWLVASSSEEVGLRGGQTATRAVSPDVAIVLDTACWAKNFDYGAANHRQIGNGPMLVLSDKSLIAPPKLTAWIETVAAEIGVPLQADMFSNGGTDGGAVHLTGTGVPTLVMGPATRHGHCAASIADCRDILQMEQLLSALIQRLTRETVVQLTDFR”, the protein production result is given as “not failed”.
On to “MDLSLSTRTVGDRTVVEVGGEIDVYTAPKLREQLVELVNDGNFHLVVDMEGVDFLDSTGLGVLVGGLKRVRAHEGSLRLVCNQERILKIFRITGLTKVFPIHTSVEEAVAATD”, for which the protein production result was “failed”.
For “MDLVKIDETLDDLQIKDIHIIQKKEGFRFGVDAVLLANYAKVKSNQTVIDLCSGTGIIPFIIQGKKSPRHITGIEIQEDMVQMANRTVLYNKFQEKIKFINEDIKNLAELKKLERVDVVTVNPPYKLRNSGIVNEFDKNAIARHEICCTLEDVIKAARTLLKDNGRLFMVHRPERLADILCLMREYKIEPKSIKMVYPSVNKAPNIVLIEGQRDGGAFLKWEKSLYIHKENGEYTEELNEIYGR”, the protein production result is “failed”.
As for “MDLVLDLLATVSRWSRSNLSEISLALVGCLLVLFGTDVKAWAEQRLGGLAGALRVPFMALMVMIGSGAALIYATPWVVKGLSQFNNYALAPVLLVVLVLIGVVADRRG”, the protein production entry is “failed”.
Regarding “MDMNTLLSLSWHLMVPEFIILGAAILLSICDLFFKLNHRYVALGAIASVVLAIVSLITLYSEPTGDILNGSFVLDGFSKGFKTLLLGGAALILCIAMSDDKKNPIEDKGEYYYLFLMALLGAMFMASSVDFITLFVGLELLSLSSYILVGIRKKNLTSNEAAMKYVINGGIGTAITLFGMSYLYGITGSTNIVDMQKVFAGELAGGIQLLLALAFLLLLVGLSFKIATVPFHMWAPDVYEGAATPVTAFLGTISKIAGFLLIIRLFLMVFASVSVQGDTQSLYGRMSIYIAVLASITMIIGNVVALKQYNVKRLFAYSGIAHAGYLLVPLVALSPFTMDSMWFYMLAYMLMNIGAFAIIHGLILQSDKENITIFTGLYKRSPFTAIVMTIFILSLAGIPGTAGFIGKINIFLGALHVEPAHYVLASIMMGTTVISFVYYFRILQQMFFRTGEVEEKIRLPLNIKVVMSLCAISIVILGIMPMIGYNFFYEYFPLMKDFFFLGNVVQ”, the protein production result was “failed”.
On to “MDMSLHFLSQGDLSGVWGRVYWRRRAGFKAIKIQSAFKAYLARKALWAGKCNGWDSSALTKEDIKAIWLRKQEGLKELFLQERRSPHMLEDSLSTPRQRVGLMDSLFVNYKKDGDKVSLWTSFVCENSKINNAKKSSLTTYQHNC”, for which the protein production result was “not failed”.
Under “MDMVTVTAKTVEEAVTKALIELQTTSDKLTYEIVEKGSAGFLGIGSKPAIIRAKRKETLQDKAIEFLEQVFDAMNMAVDISVEYNETEKEMNVNLKGDDMGILIGKRGQTLDSLQYLVSLVVNKSSSDYIRVKLDTENYRERRKETLETLAKNIAYKVKRTKRSVSLEPMNPYERRIIHAALQNDKYVVTRSDGEEPFRHVIISLKRENRRDRNDRSDRNEK” stands “not failed”; under “MDNANCVGGCKFETRSFQYRRRIPYSLGADPLPPVHPLSLKNLVDIDTDLISSQLYELYDSIILNDSGLERRYAFVQKLEQILKKEFPYKNIKTSLFGSTQSLLASNASDIDLCIITDPPQCAPTTCEVSAAFARNGLKKVVCISTAKVPIVKVWDSELQLSCDCNINKTISTLNTRLMRSYVLCDPRVRPLIVMIKYWAKRRCLNDAAEGGTLTSYTISCMVINFLQKRDPPILPSLQMLPHLQDSSTMTDGLDVSFFDDPDLVHGFGDKNEESLGILFVEFFRFFGYLFDYEHFVLSIRHGTFLSKRAKGWQFQLNNFLCVEEPFHTSRNLANTADEITMKGIQLEFRRVFRLLAYNCNVDDACSQFTFPSLTDTSFMDDYVNELQLEIVPGFSHGRDSSDTSCTESPPEPSHFAWAFDPYNATASPYYNQNINSSIDYSSIYSNDVPAIPPNVPYTFVDPYTYACYINNNSYLPPSYMDFYTWYNSPYPKSSHHFDERHGGDRHEKNLSNSRRYSRNKFHKKKQSSGPFQYYPDAFSFTPTDNNSPPSNSSSSEVVSPVSLHSEPVLSTVQAFKS”, “failed”.

These data come from a protein production outcome set (Wang et al. 2014).
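Also: failed if final PepcDB status was selected cloned or expressed and not failed if soluble or beyond.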
